From US11672767

How the values were obtained:
BMP2-PxSPCP NPs = biological target: T1, BMP2-PxSPCP NPs (UniProt P12643)
T1 sequence 1: CGGKGGKFKTGG
T1 sequence 2: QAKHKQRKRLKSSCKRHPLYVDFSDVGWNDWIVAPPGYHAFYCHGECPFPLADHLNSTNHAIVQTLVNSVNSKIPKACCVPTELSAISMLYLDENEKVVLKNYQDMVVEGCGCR

BMP2-P5SPCP NPs = biological target: T2, BMP2-P5SPCP NPs (UniProt P12643)
T2 sequence 1: CGGKGGKFKTGG
T2 sequence 2: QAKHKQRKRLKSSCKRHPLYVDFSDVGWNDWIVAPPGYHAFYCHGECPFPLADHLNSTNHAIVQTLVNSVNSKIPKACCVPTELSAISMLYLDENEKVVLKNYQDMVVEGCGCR

BMP2-PxSPCP NPs, P12643 = biological target: T3, BMP2-PxSPCP NPs, P12643
T3 chain 1: CGGKGGKFKTGG
T3 chain 2: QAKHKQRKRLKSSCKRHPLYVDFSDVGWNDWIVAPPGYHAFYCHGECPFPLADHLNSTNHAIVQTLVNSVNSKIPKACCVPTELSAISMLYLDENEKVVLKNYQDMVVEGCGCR

Molecule | release of BMP2 from NPs co-encapsulated with plasmin in LPELA hydrogel, measured by BMP2 ELISA (BMP2-PxSPCP NPs) | cumulative release of BMP2 from NPs co-encapsulated with plasmin in LPELA hydrogel, measured by BMP2 ELISA (BMP2-P5SPCP NPs) | osteogenic activity (peak RUNX2 expression) of hMSCs co-encapsulated with the NPs (BMP2-PxSPCP NPs, P12643)
plasmin | gradually released to the medium with incubation time at a rate faster than BMP2-PxSP NPs but slower than the free BMP2 | the cumulative release of BMP2 from the encapsulated BMP2-P5SPCP NPs was 60% after 21 days | 
plasmin secreted by the encapsulated cells (hMSCs) (protein) KVYLSECKTGNGKNYRGTMSKTKNGITCQKWSSTSPHRPRFSPATHPSEGLEENYCRNPDNDPQGPWCYTTDPEKRYDYCDILECEEECMHCSGENYDGKISKTMSGLECQAWDSQSPHAHGYIPSKFPNKNLKKNYCRNPDRELRPWCFTTDPNKRWELCDIPRCTTPPPSSGPTYQCLKGTGENYRGNVAVTVSGHTCQHWSAQTPHTHNRTPENFPCKNLDENYCRNPDGKRAPWCHTTNSQVRWEYCKIPSCDSSPVSTEQLAPTAPPELTPVVQDCYHGDGQSYRGTSSTTTTGKKCQSWSSMTPHRHQKTPENYPNAGLTMNYCRNPDADKGPWCFTTDPSVRWEYCNLKKCSGTEASVVAPPPVVLLPDVETPSEEDCMFGNGKGYRGKRATTVTGTPCQDWAAQEPHRHSIFTPETNPRAGLEKNYCRNPDGDVGGPWCYTTNPRKLYDYCDVPQCAAPSFDCGKPQVEPKKCPGRVVGGCVAHPHSWPWQVSLRTRFGMHFCGGTLISPEWVLTAAHCLEKSPRPSSYKVILGAHQEVNLEPHVQEIEVSRLFLEPTRKDIALLKLSSPAVITDKVIPACLPSPNYVVADRTECFITGWGETQGTFGAGLLKEAQLPVIENKVCNRYEFLNGRVQSTELCAGHLAGGTDSCQGDSGGPLVCFEKDKYILQGVTSWGLGCARPNKPGVYVRVSRFVTWIEGVMRNN |  |  | The BMP2-PxSPCP NP groups showed significantly higher osteogenic activity compared to non-cleavable BMP2-PxSP NPs
